Tested on: HEK-Blue IL-12 cells
Assay: Signaling ability in IL-12 recognizing cells (STAT4 inducible SEAP reporter)
Type: cell-based, human
Conditions: serial dilution from 4 nM, 24 hours, FIG. 18
Procedure: The HEK-Blue IL-12 cell line transformed with the IL-12 receptor gene and the STAT4 inducible SEAP reporter gene into HEK293 cells, which are human embryonic kidney fibroblasts, was obtained from Invivogen (San Diego, USA). The HEK-Blue IL-12 cells were maintained in DMEM (GIBCO) containing 10% FBS (GIBCO), 100 μg/ml Normocin and 1×HEK-Blue selection.
Specifically, the HEK-Blue IL-12 cell line, which is an IL-12 recognizing cell, was diluted to 2.8×10^5 cells/ml and dispensed at 180 μl/well. Recombinant human IL-12, T1.01m, T1.02m, T1.03m and T1.12m were suspended at 4 nM and diluted by serial dilution. HEK-Blue IL-12 cells were treated with the diluted recombinant human IL-12, T1.01m, T1.02m, T1.03m and T1.12m. After 24 hours of treatment, the cell supernatant was collected and mixed with QUANTI-Blue Solution (Invivogen) in a 96-well plate. The reporter expression level was measured at 620 nm using a spectrophotometer (Thermo Fisher).

B1: T1.12m: K&H: anti-mu FAP/null, mu IgG2a DANG (seq18, seq19, seq29); used as control (antibody)
heavy: QVQLQQSGAELARPGASVNLSCKASGYTFTNNGINWLKQRTGQGLEWIGEIYPRSTNTLYNEKFKGKATLTADRSSNTAYMELRSLTSEDSAVYFCARTLTAPFAFWGQGTLVTVSAAKTTAPSVYPLAPVCGDTTGSSVTLGCLVKGYFPEPVTLTWNSGSLSSGVHTFPAVLQSDLYTLSSSVTVTSSTWPSQSITCNVAHPASSTKVDKKIEPRGPTIKPCPPCKCPAPNLLGGPSVFIFPPKIKDVLMISLSPIVTCVVVAVSEDDPDVQISWFVNNVEVHTAQTQTHREDYGSTLRVVSALPIQHQDWMSGKEFKCKVNNKDLPAPIERTISKPKGSVRAPQVYVLPPPEEEMTKKQVTLWCMVTDFMPEDIYVEWTNNGKTELNYKNTEPVLDSDGSYFMYSKLRVEKKNWVERNSYSCSVVHEGLHNHHTTKSFSRTPGK
light: QIVLTQSPAIMSASPGEKVTMTCSASSGVNFMHWYQQKSGTSPKRWIFDTSKLASGVPARFSGSGSGTSYSLTISSMEAEDAATYYCQQWSFNPPTFGGGTKLEIKRADAAPTVSIFPPSSEQLTSGGASVVCFLNNFYPKDINVKWKIDGSERQNGVLNSWTDQDSKDSTYSMSSTLTLTKDEYERHNSYTCEATHKTSTSPIVKSFNRNEC
chain: EPRGPTIKPCPPCKCPAPNLLGGPSVFIFPPKIKDVLMISLSPIVTCVVVAVSEDDPDVQISWFVNNVEVHTAQTQTHREDYGSTLRVVSALPIQHQDWMSGKEFKCKVNNKDLPAPIERTISKPKGSVRAPQVYVLPPPEEEMTKKQVTLSCAVTDFMPEDIYVEWTNNGKTELNYKNTEPVLDSDGSYFMVSKLRVEKKNWVERNSYSCSVVHEGLHNHHTTKSFSRTPGK
IL-12 recognition / STAT4 reporter gene expression (620 nm absorbance): did not recognize IL-12
